Measurements reported in US12514853B2, “Therapeutic dendrimer” (Starpharma Pty Ltd, priority 2018, dated 2026).
Values joined by “and” are separate entries in the source; they are usually repeats but may differ in a detail not shown here. Equal entries are not always repeated. Where two headings read alike, the source gives them in different places.

Key:
[1] = system: HT-29 cells (human colon cancer cell line); assay: In-vitro anti-cancer drug screening, cell counting (SRB) assay; type: cell-based; conditions: concentration required to inhibit net cell growth by 50%
Experimental: A study was carried out to determine the ability of example dendrimers to inhibit growth of HT-29 cells (human colon cancer cell line) using a cell counting (SRB) assay.

[2] = plasma release study (SN-38 release in rat plasma); type: in vitro ADME; conditions: 37° C.
[3] = SN-38 release from dendrimers in 9:1 PBS/DMA at 37° C. and pH 7.4; type: physicochemical; conditions: SN-38 released, pH 7.4, 1 mg/mL dendrimer
Experimental: A study was carried out to determine the rate of SN-38 release from certain dendrimeric compounds in 9:1 PBS (phosphate-buffered saline): DMA at 37° C. and pH 7.4.
The PBS release study was conducted by preparing 1 mg/mL solutions of dendrimer in 9:1 v/v (PBS/DMA) immediately prior to incubation at 37° C. Samples were analysed at 6 h and 18 h and other timepoints by HPLC, comparing the % peak area of SN-38 to the % peak area of dendrimer construct. HPLC (C8 Xbridge, 3×100 mm), gradient: 5% ACN/H2O (0-1 min), 5-80% ACN (1-7 min), 80% ACN (7-12 min), 80-5% ACN (12-13 min), 5% ACN (13-15 min), 243 nm, 10 mM ammonium formate buffer, 0.4 mL/min.

[4] = system: HT-29 (human colon carcinoma cell line) xenograft; assay: Efficacy alone or in combination with olaparib in HT-29 xenograft model in mice; type: in vivo, Balb/c nude mice; conditions: for Percent TGI: day 28; for effect on HT-29 tumour growth (in words): olaparib 50 mg/kg orally, irinotecan 80 mg/kg IV, their combination, 2f 5 and 8 mg/kg IV
Experimental: Olaparib solid powder obtained from MedChemExpress was solubilised in DMSO and an oral formulation was prepared at a final concentration of 5 mg/ml in 10% DMSO: 15% (2-Hydroxypropyl)-β-cyclodextrin in sterile water.
The endpoint for the analysis was a tumour volume of 1200 mm^3.
Statistical analysis of tumour growth was performed on day 28 when the first study animals reached endpoint criteria for tumour burden.

[5] = for tolerability: 2f 15 mg/kg, 2i 15 mg/kg, 2h 25 mg/kg, 2a 30 mg/kg SN-38 equivalents, IV once weekly for three weeks
[6] = system: HT-29 (human colon carcinoma cell line) xenograft; assay: Efficacy alone or in combination with cetuximab in HT-29 xenograft model in mice
[7] = system: SW620 (human colon carcinoma cell line) xenograft; assay: Efficacy in SW620 xenograft model in mice; conditions: for effect on SW620 tumour growth / tolerability: irinotecan 90 mg/kg; for effect on SW620 tumour growth: 2f 15, 2i 15, 2h 25, 2a 25 mg/kg IV days 1, 8, 15, study to day 119; for tolerability: 2f 15, 2i 15, 2h 25, 2a 25 mg/kg IV once weekly for three weeks
[8] = system: MDA-MB-231 (human breast carcinoma cell line) xenograft; assay: Efficacy in MDA-MB-231 xenograft model in mice; type: in vivo, Balb/c nude mice; conditions: irinotecan 90 mg/kg, 2f 15, 2h 25 mg/kg IV once weekly for three weeks
[9] = Single dose pharmacokinetic study in rats; conditions: rat, single slow bolus IV
[10] = system: CAPAN-1 (pancreatic cancer cell line) xenograft; assay: Efficacy in CAPAN-1 xenograft model in mice; type: in vivo
[11] = system: HT-29 (human colon carcinoma cell line) xenograft; assay: Efficacy in HT-29 xenograft model in mice; type: in vivo, Balb/c nude mice; conditions: for effect on HT-29 tumour growth: 2f 15, 2i 15, 2h 25 mg/kg SN-38 equivalents IV once weekly; for Tumour growth inhibited: day 36, vs vehicle, irinotecan 90 mg/kg, 2f 15, 2i 15, 2h 25 mg/kg IV
[12] = patients to which irinotecan is administered; cited from earlier work
[13] = olaparib 50 mg/kg orally 5 days on/2 days off for 3 weeks, irinotecan 80 mg/kg IV days 1, 8, 15
[14] = 15 mg/kg SN-38 equivalents IV once weekly for 3 weeks
[15] = 20 mg/kg SN-38 equivalents IV once weekly for 3 weeks
[16] = 30 mg/kg SN-38 equivalents IV once weekly for 3 weeks
[17] = high dose 2f (approx. 16.5 mg/kg SN-38 equivalents)
[18] = low dose 2f (approx. 1.3 mg/kg SN-38 equivalents)
[19] = medium dose 2f (approx. 7.5 mg/kg SN-38 equiv)

## BHALys[Lys]32[α-TDA-C20-SN-38]32†[ε-PEG˜2300]32‡ [Dendrimer 2d]
[1]
  GI50: 0.14 µM
[2]; 0.5 h
  % SN-38 released: 1.87%
[2]; 2 h
  % SN-38 released: 5.47%
[2]; 4 h
  % SN-38 released: 9.50%
[2]; 6 h
  % SN-38 released: 14.92%
[2]; 22 h
  % SN-38 released: 46.69%
[3]
  % Release at 6 h in 9:1 PBS/DMA at 37° C.: 5%
  % Release at 18 h in 9:1 PBS/DMA at 37° C.: 13%

## O=C(c1cc(Cc2n[nH]c(=O)c3ccccc23)ccc1F)N1CCN(C(=O)C2CC2)CC1 [Olaparib, reference compound]
[4]; [13]
  Percent TGI: 0%
[4]
  effect on HT-29 tumour growth (in words): no effect on tumour growth

## BHALys[Lys]32[α-DGA-C20-SN-38]32†[ε-PEG˜2100]32‡ [Dendrimer 2f]
[5]; [14]
  Max. body weight loss (%): 4%
[5]; [15]
  Max. body weight loss (%): 10%
[5]; [16]
  Max. body weight loss (%): 22%
[5]
  tolerability: well tolerated
[6]; 2f 10 and 5 mg/kg vs cetuximab 25 mg/kg
  survival versus cetuximab: prolonged survival versus cetuximab
[6]; 2f 10 and 5 mg/kg vs irinotecan 35 mg/kg, P<0.0001
  survival versus irinotecan: significantly prolonged survival versus irinotecan
[4]; 2f 5 and 8 mg/kg vs irinotecan 80 mg/kg, P <0.0001
  tumour growth and tumour regression versus irinotecan: significantly inhibited tumour growth and prolonged tumour regression versus irinotecan
[4]; 2f 5 and 8 mg/kg vs olaparib 50 mg/kg
  tumour regression versus olaparib: prolonged tumour regression versus olaparib
[4]; 5 mg/kg 2f IV days 1, 8, 15, alone or with olaparib 50 mg/kg orally
  Percent TGI: 62%
[4]; 8 mg/kg 2f IV days 1, 8, 16, alone or with olaparib 50 mg/kg orally
  Percent TGI: 94% and 97%
[4]
  effect on HT-29 tumour growth (in words): clear dose dependent repose with statistically significant inhibition of tumour growth
[1]
  GI50: 0.05 µM and 0.04 µM
[7]
  effect on SW620 tumour growth: induce regression of SW620 tumours
  tolerability: well tolerated
[8]
  effect on MDA-MB-231 tumour growth: induce MDA-MB-231 tumour regression
[9]; [17]
  AUC0-∞, free SN-38: 6,677 ng · hr/mL
  Cmax, free SN-38: 0.289 µg/mL
  Cmax, total SN-38: 306,500 ng/mL
  Free SN-38 at 120 hours: 10.8 ng/mL
  Total SN-38 at 120 hours: 792.5 ng/mL
[9]; [18]
  AUC0-∞, free SN-38: 1,196 ng · hr/mL
  Cmax, free SN-38: 0.093 µg/mL
  Cmax, total SN-38: 32,767 ng/mL
  Free SN-38 at 120 hours: 0.8 ng/mL
  Total SN-38 at 120 hours: 111.5 ng/mL
[9]; [19]
  AUC0-∞, free SN-38: 3,179 ng · hr/mL
  Cmax, free SN-38: 0.164 µg/mL
  Cmax, total SN-38: 150,334 ng/mL
  Free SN-38 at 120 hours: 3.7 ng/mL
  Total SN-38 at 120 hours: 498 ng/mL
[10]; administered intraperitoneally once weekly for three weeks
  effect on CAPAN-1 tumour growth: induces CAPAN-1 tumour regression
[10]; administered intravenously once weekly for three weeks
  effect on CAPAN-1 tumour growth: induces CAPAN-1 tumour regression
[2]; 0.5 h
  % SN-38 released: 5.06%
[2]; 2 h
  % SN-38 released: 24.56%
[2]; 4 h
  % SN-38 released: 45.36%
[2]; 6 h
  % SN-38 released: 61.81%
[2]; 22 h
  % SN-38 released: 95.61%
[11]
  effect on HT-29 tumour growth: induce transient regression of HT-29 tumours
  Tumour growth inhibited: 108%
[3]
  % Release at 6 h in 9:1 PBS/DMA at 37° C.: 24%
  % Release at 18 h in 9:1 PBS/DMA at 37° C.: 55%

## BHALys[Lys]32[α-DGA-C10-SN-38]32†[ε-PEG˜2300]32‡ [Dendrimer 2e]
[1]
  GI50: < 0.01 µM
[2]; 0.5 h
  % SN-38 released: 30.58%
[2]; 2 h
  % SN-38 released: 57.54%
[2]; 4 h
  % SN-38 released: 67.96%
[2]; 6 h
  % SN-38 released: 75.16%
[2]; 22 h
  % SN-38 released: 95.38%
[3]
  % Release at 6 h in 9:1 PBS/DMA at 37° C.: 64%
  % Release at 18 h in 9:1 PBS/DMA at 37° C.: 71%

## BHALys[Lys]32[α-TDA-C20-Irinotecan]32†[ε-PEG˜2100]32‡ [Dendrimer 2k]
[1]
  GI50: 46 µM

## BHALys[Lys]32[α-Glu-C10-SN-38]32†[ε-PEG˜2300]32‡ [Dendrimer 2a]
[5]; 10 mg/kg SN-38 equivalents IV once weekly for 3 weeks
  Max. body weight loss (%): 0%
[5]; [16]
  Max. body weight loss (%): 10%
[5]
  tolerability: well tolerated
[1]
  GI50: 0.13 µM
[7]; 2a 25 mg/kg IV days 1, 8, 15, group of 6
  animals euthanized due to weight loss: One animal from the 2a group was euthanized during the study due to weight loss on Day 99
[7]
  effect on SW620 tumour growth: induce regression of SW620 tumours
  tolerability: well tolerated
[2]; 0.5 h
  % SN-38 released: 1.59%
[2]; 2 h
  % SN-38 released: 4.47%
[2]; 4 h
  % SN-38 released: 7.57%
[2]; 6 h
  % SN-38 released: 11.28%
[2]; 22 h
  % SN-38 released: 42.46%
[3]
  % Release at 6 h in 9:1 PBS/DMA at 37° C.: 9%
  % Release at 18 h in 9:1 PBS/DMA at 37° C.: 38%

## BHALys[Lys]32[α-Glu-C20-SN-38]32†[ε-PEG˜2300]32‡ [Dendrimer 2b]
[2]; 0.5 h
  % SN-38 released: 0.93%
[2]; 2 h
  % SN-38 released: 1.27%
[2]; 4 h
  % SN-38 released: 1.94%
[2]; 6 h
  % SN-38 released: 2.73%
[2]; 22 h
  % SN-38 released: 12.17%
[3]
  % Release at 6 h in 9:1 PBS/DMA at 37° C.: 0%
  % Release at 18 h in 9:1 PBS/DMA at 37° C.: 3%

## CCc1c2c(nc3ccc(OC(=O)N4CCC(N5CCCCC5)CC4)cc13)-c1cc3c(c(=O)n1C2)COC(=O)[C@]3(O)CC [Irinotecan, reference compound]
[5]; 100 mg/kg irinotecan
  signs of toxicity: pale extremities and lethargy
[4]; [13]
  Percent TGI: 33%
[4]
  effect on HT-29 tumour growth (in words): moderate effect on tumour growth
[1]; Homo sapiens
  GI50: 7 µM
[7]
  effect on SW620 tumour growth: delay of tumour growth with the exception of one tumour, which completely regressed after day 25
[8]
  effect on MDA-MB-231 tumour growth: continued to grow during drug treatment
[12]
  patients with early symptoms of gastrointestinal toxicity (diarrhea, emesis, diaphoresis, abdominal cramping): up to 80%
[11]
  Tumour growth inhibited: 23%

## BHALys[Lys]32[α-THF-C20-SN-38]32†[ε-PEG˜2300]32‡ [Dendrimer 2i]
[5]; [14]
  Max. body weight loss (%): 8%
[5]; [15]
  Max. body weight loss (%): 15%
[5]; [16]
  Max. body weight loss (%): 15%
[5]
  tolerability: well tolerated
[7]
  effect on SW620 tumour growth: induce regression of SW620 tumours
  tolerability: well tolerated
[11]
  effect on HT-29 tumour growth: induce transient regression of HT-29 tumours
  Tumour growth inhibited: 103%
[3]
  % Release at 6 h in 9:1 PBS/DMA at 37° C.: 40%
  % Release at 18 h in 9:1 PBS/DMA at 37° C.: 60%

## BHALys[Lys]32[α-DGA-C20-Irinotecan]32†[ε-PEG˜2300]32‡ [Dendrimer 2j]
[1]
  GI50: 12 µM

## CCc1c2c(nc3ccc(O)cc13)-c1cc3c(c(=O)n1C2)COC(=O)[C@]3(O)CC [SN-38, reference compound]
[1]; Homo sapiens
  GI50: < 0.01 µM

## BHALys[Lys]32[α-TDA-C10-SN-38]32†[ε-PEG˜2100]32‡ [Dendrimer 2c]
[1]
  GI50: 0.03 µM
[2]; 0.5 h
  % SN-38 released: 20.52%
[2]; 2 h
  % SN-38 released: 38.32%
[2]; 4 h
  % SN-38 released: 48.79%
[2]; 6 h
  % SN-38 released: 53.42%
[2]; 22 h
  % SN-38 released: 69.8%
[3]
  % Release at 6 h in 9:1 PBS/DMA at 37° C.: 54%
  % Release at 18 h in 9:1 PBS/DMA at 37° C.: 55%
